Test results published in patent US20240287172A1 (SCIRHOM, published 2024).
Numbering of substitutions follows the chain as printed.

T1: hiR1-FL-WT-T7 (human, UniProt Q96CC6 1-855)
T1 construct: on MEF-DKO cells
T1 sequence: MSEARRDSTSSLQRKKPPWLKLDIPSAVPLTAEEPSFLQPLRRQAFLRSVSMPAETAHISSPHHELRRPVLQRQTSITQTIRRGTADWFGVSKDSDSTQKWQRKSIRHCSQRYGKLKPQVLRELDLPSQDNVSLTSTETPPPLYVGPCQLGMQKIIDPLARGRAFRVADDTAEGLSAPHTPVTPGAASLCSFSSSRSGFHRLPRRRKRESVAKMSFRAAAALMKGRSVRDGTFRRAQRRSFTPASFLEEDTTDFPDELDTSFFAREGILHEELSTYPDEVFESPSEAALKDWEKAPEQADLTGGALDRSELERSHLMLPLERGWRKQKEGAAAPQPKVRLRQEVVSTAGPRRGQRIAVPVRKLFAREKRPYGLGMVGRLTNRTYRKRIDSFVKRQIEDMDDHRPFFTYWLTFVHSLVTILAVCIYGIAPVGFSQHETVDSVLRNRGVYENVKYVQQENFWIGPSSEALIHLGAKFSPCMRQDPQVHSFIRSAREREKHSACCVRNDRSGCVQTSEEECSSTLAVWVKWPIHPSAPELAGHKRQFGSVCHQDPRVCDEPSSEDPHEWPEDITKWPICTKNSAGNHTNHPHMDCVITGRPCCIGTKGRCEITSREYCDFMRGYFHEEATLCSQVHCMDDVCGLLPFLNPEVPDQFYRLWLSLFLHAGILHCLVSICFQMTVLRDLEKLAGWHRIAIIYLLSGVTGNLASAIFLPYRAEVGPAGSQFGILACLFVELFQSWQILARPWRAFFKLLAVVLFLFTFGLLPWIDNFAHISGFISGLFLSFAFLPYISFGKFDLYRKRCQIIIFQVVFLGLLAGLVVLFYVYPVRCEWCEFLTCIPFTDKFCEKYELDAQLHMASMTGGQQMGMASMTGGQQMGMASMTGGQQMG

T2: hiR2-FL-S537E-T7 (human, UniProt Q6PJF5 1-856)
T2 sequence: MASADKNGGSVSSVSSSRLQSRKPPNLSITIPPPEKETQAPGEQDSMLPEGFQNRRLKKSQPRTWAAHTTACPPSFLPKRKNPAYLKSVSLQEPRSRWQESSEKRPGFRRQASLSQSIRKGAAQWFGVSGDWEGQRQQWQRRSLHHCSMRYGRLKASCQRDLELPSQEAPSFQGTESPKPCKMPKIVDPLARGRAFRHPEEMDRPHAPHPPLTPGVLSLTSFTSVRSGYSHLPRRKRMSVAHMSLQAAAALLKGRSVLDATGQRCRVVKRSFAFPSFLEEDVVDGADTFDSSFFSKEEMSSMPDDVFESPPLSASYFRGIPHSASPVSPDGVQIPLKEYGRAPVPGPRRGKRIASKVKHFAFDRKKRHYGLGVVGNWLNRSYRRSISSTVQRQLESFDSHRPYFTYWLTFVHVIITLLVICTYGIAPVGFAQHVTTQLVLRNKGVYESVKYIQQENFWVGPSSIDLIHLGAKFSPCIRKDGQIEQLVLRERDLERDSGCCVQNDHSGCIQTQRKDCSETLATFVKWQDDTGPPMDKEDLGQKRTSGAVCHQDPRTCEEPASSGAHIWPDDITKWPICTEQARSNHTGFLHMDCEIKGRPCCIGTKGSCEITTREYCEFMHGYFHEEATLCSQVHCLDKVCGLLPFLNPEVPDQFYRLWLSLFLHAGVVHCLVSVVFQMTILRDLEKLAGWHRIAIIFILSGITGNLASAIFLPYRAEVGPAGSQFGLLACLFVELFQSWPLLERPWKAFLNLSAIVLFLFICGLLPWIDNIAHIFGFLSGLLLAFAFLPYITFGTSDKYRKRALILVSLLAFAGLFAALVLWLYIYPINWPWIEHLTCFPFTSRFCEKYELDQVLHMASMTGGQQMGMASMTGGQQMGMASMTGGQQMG

B1: antibody 16 (antibody, V domains shown)
VH: QVTLKESGPGILQPSQTLSLTCSFSGFSLSTFALGVGWIRQPSGRGLEWLAHIWWDDDKYYNPALKSRLTISKDTSKNHVFLKIANVDTADTATYYCARITTYYYGMDYWGQGTSVTVSS
VL: DIVLSQSPATLSVTPGDSVSLFCRASQSIGNHLHWYQQESHASPRLLIKYASQSISGIPSRFSGSGSGTDFTLSINSVETEDFGMYFCQQSYNWPLTFGAGTKLELK
notes: mouse IgG, kappa light chain; also called clone #16; purified antibody 16
B2: antibody 5 (antibody, V domains shown)
VH: QVTLKESGPGILQPSQTLSLTCSFSGFSLSTFGMGVGWIRQPSGKGLEWLAHIWWDDEKYYNSALKSRLTISKATSKNQAFLKIANVDTADTATYYCARISNYGSNYWYFNVWGTGTTVTVSS
VL: QVVLTQSPALMSASPGEKVTMTCSAGSSVSCMYWYQQKPGSSPRVLIYDTSNLASGVPARFTGSGSGTSYSLTISRMEAEDAASYYCQQWNSYPLTFGAGTKLELK
notes: mouse IgG, kappa light chain; also called clone #5; purified antibody 5
B3: antibody 22 (antibody, V domains shown)
VH: B2 VH with A80V
VL: B2 VL with C31Y, S84T
notes: mouse IgG, kappa light chain; also called clone #22; purified antibody 22
B4: antibody 42 (antibody, V domains shown)
VH: B2 VH with F24L, M34R, S63P, A74D, A80V, K83R, S101Q, N111D
VL: LIVLTQSPAIMSASPGEKVTMTCGATSRISYMFWYQQKPGSSPRVLIYDTSNLASGVPVRFSGSGSGTSYSLTISRVEAEDVATYYCQQWNSYPLTFGAGTKLELK
notes: mouse IgG, kappa light chain; also called clone #42; purified antibody 42
B5: antibody 3 (antibody, V domains shown)
VH: QVTLKESGPGILQPSQTLSLTCSFSGFSLTTFAMGIGWVRQPSGKGLEWLAHIWWDGEKYNNPVLKSRLTISKDTSKNQVFLRIANVDTPDTATYYCARISSIYYIIDNWGQGTSVTVSS
VL: B1 VL with S5T, D17H, F22S, G30S, H32N, Q38K, E39K, A42E, A51V
notes: mouse IgG, kappa light chain; also called clone #3; purified antibody 3
B6: antibody 34 (antibody, V domains shown)
VH: QVTLKESGPGILQPSQTLSLTCSFSGFSLSTFSLGVGWIRQSSGKGLEWLAHIWWDDEKYYNPALKSRLTISKDTSKNQVFLKIANVDAADTATYYCARAYYSKSYYALDYWGQGTSVTVSS
VL: DIQMTQSPSSLSASLGERVSLTCRASQEISGYLSWLQQKPDGTIKRLIYAASTLDSGVPKRFSGSRSGSDYSLAISSLESEDFADYYCLQYANFPFTFGSGTKLEIK
notes: mouse IgG, kappa light chain; also called clone #34; purified antibody 34
B7: antibody 43 (antibody, V domains shown)
VH: B2 VH with T3A, P42S, H52N, E58D, S63P, A74D, T75A, S101G, N111D
VL: B4 VL with L1Q, K18R, G24S, T26N, F33Y, V45L, V77M, V82A, Y86N, N91S
notes: mouse IgG, kappa light chain; also called clone #43; purified antibody 43
B8: antibody 44 (antibody, V domains shown)
VH: B2 VH with G44E, E58D, S63P, A74D, A80I, A85T, D91E, A98S, S101G, N111D
VL: QIVLTQSPAVMSASPGEKVTMTCTASSSVYYMYWYQQTPGSSPRLLIYDTSNLASGVPVRFSGSGSGTSYSLTISRMEAEDAATYYCQQWNTYPLTFGAGTKLELK
notes: mouse IgG, kappa light chain; also called clone #44; purified antibody 44
B9: antibody 48 (antibody, V domains shown)
VH: QVQLQQSGTELVRPGTSVKVSCKASGYAFTNYLIEWVKQRPGQGLEWIGVINPGSGFTKYNEKFKGKATLTADKSSSTVYMHLSSLTSEDSAVYFCARGLYRAMDYWGQGTSVTVSS
VL: DIQMTQSPASQSASLGESVTITCLASQTIATWLAWYQQKPGKSPQLLIYGATTLADGVPSRFSGGGSGTKFSFKISSLQAEDFVSYYCQQLYSTPYTFGGGTKLEIK
notes: mouse IgG, kappa light chain; also called clone #48; purified antibody 48
B10: antibody 50 (antibody, V domains shown)
VH: B9 VH with T9A, T16A, T30S, V79A, H82Q
VL: B9 VL with A30G, G50A, T52A, T53S, S85N, L91I
notes: mouse IgG, kappa light chain; also called clone #50; purified antibody 50

Legend:
hiR1-FL-WT-T7 = molecular target: T1, hiR1-FL-WT-T7; assay: FACS, MEF-DKO cells, 3 µg/ml
hiR2-FL-S537E-T7 = molecular target: T2, hiR2-FL-S537E-T7; assay: FACS, MEF-DKO cells, 3 µg/ml

Row | Binder | loss of binding vs wild type (hiR1-FL-WT-T7) [%] | loss of binding vs wild type (hiR2-FL-S537E-T7) [%]
1 | B1 | ≥ 95 | –
2 | B2 | ≥ 95 | ≥ 95
3 | B3 | ≥ 95 | ≥ 60
4 | B4 | ≥ 95 | ≥ 60
5 | B5 | ≥ 95 | –
6 | B6 | ≥ 95 | ≥ 95
7 | B7 | ≥ 95 | ≥ 60
8 | B8 | ≥ 95 | ≥ 60
9 | B9 | ≥ 60 | –
10 | B10 | ≥ 95 | –
